The text below walks through data of patent US20240159767A1.

Some results are limits rather than exact numbers.

The test addresses PKA substrate fused to MinD (phosphorylated form) (Escherichia coli). Nature of the test: power ratio of live-cell fluorescence oscillations, saturating isoprenaline.

On to “FHA1-mCerulean (from UniProt P22216 22-162)”, for which the fold increase of the power ratio of the FHA1 signal to the MinDE carrier after a saturating dose of isoprenaline against resting cells is less than 7 fold.
